Patent US5972902, “DNA encoding human IL-6 receptor antagonist and protein encoded thereby” (dated 1999)

B1: IL-6 DFRD/D160R (ligand)
chain: PVPPGEDSKDVAAPHRQPLTSSERIDKQIRDILDFISALRKETCNKSNMCESSKEALAENNLNLPKMAEKDGCFQSGFNEETCLVKIITGLLEFEVYLEYLQNRFESSEEQARAVQMRTKDLIQFLQKKAKNLDAITTPDPTTNASLLTKLQAQNQWLQRMTTHLILRSFKEFLQSSLRALRQM
B2: IL-6 DFRD/W157R/D160R (ligand)
chain: PVPPGEDSKDVAAPHRQPLTSSERIDKQIRDILDFISALRKETCNKSNMCESSKEALAENNLNLPKMAEKDGCFQSGFNEETCLVKIITGLLEFEVYLEYLQNRFESSEEQARAVQMRTKDLIQFLQKKAKNLDAITTPDPTTNASLLTKLQAQNQRLQRMTTHLILRSFKEFLQSSLRALRQM
B3: IL-6 DFRD/T162D (ligand)
chain: PVPPGEDSKDVAAPHRQPLTSSERIDKQIRDILDFISALRKETCNKSNMCESSKEALAENNLNLPKMAEKDGCFQSGFNEETCLVKIITGLLEFEVYLEYLQNRFESSEEQARAVQMRTKDLIQFLQKKAKNLDAITTPDPTTNASLLTKLQAQNQWLQDMDTHLILRSFKEFLQSSLRALRQM

Experiments:
hIL-6 receptor [1] = molecular target: T1, hIL-6 receptor (human, UniProt P08887)
hIL-6 receptor [2] = molecular target: T1, hIL-6 receptor; experiment: receptor binding assay by the method of Savino et al. 1994
Procedure: The proteins IL-6 DFRD/D160R (coded by the cDNA described in SEQ ID NO:4), IL-6 DFRD/W157R/D160R (coded by the cDNA described in SEQ ID NO:5) and IL-6 DFRD/T162D (coded by the cDNA described in SEQ ID NO:6) were produced according to the state of the art, as described (Arcone, R., Pucci, P., Zappacosta, F., Fontaine, V., Malorni, A., Marino, G., and Ciliberto, G., Eur. J. Biochem. 198, 541–547, 1991). The ability of the mutants to bind to the hIL-6 receptor was measured using state of the art methods, as described (Savino, R., Lahm, A., Salvati, A. L., Ciapponi, L., Sporeno, E., Altamura, S., Paonessa, G., Toniatti, C., Ciliberto, G., EMBO J. 13, 1357–1367, 1994). Table 1 below gives the receptor binding levels for wild type IL-6 and for the mutant forms obtained as described in example 1.

gp130 = gp130 (Homo sapiens (Human), UniProt P40189); experiment: cell-based or functional assay

Molecule | 90% inhibition of interleukin-6 activity on hepatoma cells Hep3B (4 ng/ml wild type IL-6) (hIL-6 receptor [1]) [ng/mL] | 90% inhibition of interleukin-6 activity on myeloma cells XG-1 (IL-6-dependent growth, 0.1 ng/ml wild type IL-6) (hIL-6 receptor [1]) [ng/mL] | 90% inhibition of interleukin-6 activity on myeloma cells XG-2 (IL-6-dependent growth, 0.5 ng/ml wild type IL-6) (hIL-6 receptor [1]) [ng/mL] | ability to bind to the IL-6 receptor (% of wild type) (hIL-6 receptor [2]) [%] | Biological activity on human hepatoma cells (gp130) [%]
Sant7 (ligand) | 30 | 35 | 950 | – | –
B1 | – | – | – | 137 | –
B2 | – | – | – | 130 | 0
B3 | – | – | – | 39 | 0
